The results in this text go back to US20250326842A1.

Where a chain is given by its changes, count along the chain named.

To fix the notation:
B1: BGA12 (antibody, V domains shown)
VH: QVQLQQSGPEVVRPGVSVKISCKGSGYTFTDYAMHWVKQSHGKSLEWIGVVLTHNDNTNYNQKFKAKATMTVDRSSSTAYMELARLTSEDSAIYYCAREVYYDFDDGNYFPMDYWGQGTSVTVSS
VL: DIVMSQSPSSLAVSVGEKVTMSCKSSQSLLYSDNQKNYLAWYQQKPGQSPKLLIYWASTRESGVPVRFTGSGSGTDFTLTISSVKAEDLAVYYCQQYYSYHTFGGGTKLEIK
B2: BGA86 (antibody, human IgG1, V domains shown)
VH: EVQLQESGGGSVKPGGSLQLSCAASGFTFSSYGMSWIRQSPEKKLEWVAEISSGGTYTYYPDTVTGRFTISRDNAKNTLYLEMSSLRSEDTAMYYCARGDPFGYWGQGTLVTVSA
VL: DVVMTQSHKFVSTSVGGRVSITCKASQDVMTAVAWYQQKPGQSPKLLIYSTSYRFTGVPDRFTGSGSGTDFTLTINGVQAEDLAVYSCQQHYSTPRTFGGGTKLEIK
B3: BGA38 (antibody, V domains shown)
VH: EVQLQESGAEHVMPGASVKMSCKAAGYTFTDYWMYWVKQRPGQGLEWIGTIDTSDHKTSYNQKFRGKATLTVDESSSTAYMQLSSLTSEDSAVYYCARDFIITVNYPVVDYWGQGTSVTVSS
VL: QNVLTQSPAIMSASPGEKVTITCSAGSSVNYMHWFQQKPGTSPKLWIYSTSNLASGVPARFSGSGSGTSYSLTISRMEAEDAATYYCQQRSSLPFTFGSGTKLEIK
B4: BGA50 (antibody, V domains shown)
VH: EVQLQQSGPEPVKPGASVKISCKASGYSFTGYFLNWVKQSHGKSLEWIGRISPYNGDTFYNQKFKGKATLTVDKSSSTAHMELLSLTSEDSAVYYCGRSGSFTLFYAMDYWGQGTSVTVSS
VL: DIVMSQSPSSLAVSVGENITMTCKSSQSLFHSGNQKNYLAWYQQKPGQSPKLLIYWASTRESGVPDRFTGSGSETDFTLTISSVKAEDLAVYFCQQYYSYPITFGAGTKLELK
B5: BGA381 (antibody, V domains shown)
VH: EVQLVQSGAEVKKPGASVKVSCKASGYTFTDYWIYWVRQAPGQGLEWMGTIDTSDHKTSYNQKFRGRVTMTRDTSTSTVYMELSSLRSEDTAVYYCARDFIITVNYPVVDYWGQGTLVTVSS
VL: QIVLTQSPATLSLSPGERATLSCSAGSSVNYMHWFQQKPGQAPRLLIYSTSNLASGVPARFSGSGSGTDYTLTISSLEPEDFAVYYCQQRSSLPFTFGQGTKLEIK
B6: BGA382 (antibody, V domains shown)
VH: B5 VH
VL: B5 VL with I2N, M32L
B7: BGA383 (antibody, V domains shown)
VH: B5 VH with H56A
VL: B5 VL
B8: BGA861 (antibody, V domains shown)
VH: EVQLVESGGGLVKPGGSLRLSCAASGFTFSSYGISWVRQAPGKGLEWVSEISSGGTYTYYPDTVTGRFTISRDNAKNTLYLQMSSLRAEDTAVYYCARGDPFGYWGQGTLVTVSS
VL: DIQMTQSPSSLSASVGDRVTITCKASQDVMTAVAWYQQKPGKAPKLLIYSTSYRFTGVPSRFSGSGSGTDFTLTISSLQPEDFATYYCQQHYSTPRTFGGGTKVEIK
B9: BGA862 (antibody, V domains shown)
VH: B8 VH with I34L
VL: B8 VL
B10: BGA501 (antibody, V domains shown)
VH: QVQLVQSGAEVKKPGASVKVSCKASGYSFTGYFLNWVRQAPGQGLEWIGRISPYQGDTFYNQKFKGRVTMTTDKSTSTAYMELRSLRSDDTAVYYCGRSGSFTLFYAIDYWGQGTLVTVSS
VL: DIVMTQSPSSLAVSLGERATINCKSSQSLFHSGNQKNYLAWYQQKPGQSPKLLIYWASTRESGVPDRFSGSGSGTDFTLTISSLQAEDVAVYYCQQYYSYPITFGQGTKLEIK
B11: BGA503 (antibody, V domains shown)
VH: B10 VH with T72V, I108L
VL: B10 VL
B12: BGA502 (antibody, V domains shown)
VH: B10 VH with I108L
VL: B10 VL

For one assay, the target named is Cyno PVRIG recombinant protein (cynomolgus monkey). The assay is described as follows: ELISA, chimeric antibody on recombinant cyno PVRIG.
Sequence of Cyno PVRIG recombinant protein (cynomolgus monkey) (Q6DKI7 other isoform, or with tags, fused parts or gaps limits assumed): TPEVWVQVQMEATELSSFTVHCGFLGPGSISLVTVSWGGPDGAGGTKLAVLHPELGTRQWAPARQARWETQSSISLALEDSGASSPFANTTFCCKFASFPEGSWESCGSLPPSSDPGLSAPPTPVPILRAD
Turning to B1, the EC50 was 0.039 nM.

For B2, the EC50 was found to be 0.0449 nM.

For the molecule B3, the EC50 came to 0.223 nM.

Take B4: the EC50 was 0.0273 nM.

Another assay shares this target. The assay is described as follows: SPR, antibody captured via anti-human Fc, cyno PVRIG analyte.
B1: the Kd came out at 6.31 nM, the koff was found to be 0.000354 s⁻¹ and the kon worked out at 56100 M⁻¹ s⁻¹.

Regarding B2, the Kd came out at 0.674 nM, the koff is 0.00133 s⁻¹ and the kon amounted to 1.97e+06 M⁻¹ s⁻¹.

Consider B3, for which the Kd is 0.109 nM, the koff was determined as 0.000157 s⁻¹ and the kon was 1.44e+06 M⁻¹ s⁻¹.

As for B4, the Kd turned out to be 0.73 nM, the koff was 0.00588 s⁻¹ and the kon is 8.05e+06 M⁻¹ s⁻¹.

A further assay shares this target. The assay is described as above. This is another data set of the same source.
As to B5, the Kd was found to be 0.0738 nM, the koff came out at 0.000367 s⁻¹ and the kon stood at 4.98e+06 M⁻¹ s⁻¹.

As to B6, the Kd was determined as 0.0518 nM, the koff stood at 0.000243 s⁻¹ and the kon is 4.7e+06 M⁻¹ s⁻¹.

For the molecule B7, the Kd was 0.0658 nM, the koff turned out to be 0.000345 s⁻¹ and the kon turned out to be 5.25e+06 M⁻¹ s⁻¹.

In the case of B8, the Kd came out at 1.01 nM, the koff stood at 0.00221 s⁻¹ and the kon is 2.18e+06 M⁻¹ s⁻¹.

For B9, the Kd is 2.16 nM, the koff was determined as 0.00483 s⁻¹ and the kon worked out at 2.23e+06 M⁻¹ s⁻¹.

As to B10, the Kd came out at 0.426 nM, the koff is 0.00267 s⁻¹ and the kon was 6.27e+06 M⁻¹ s⁻¹.

Turning to B11, the Kd is 0.396 nM, the koff came out at 0.00294 s⁻¹ and the on-rate constant (kon) is 7.44e+06 M⁻¹ s⁻¹.

For the molecule B12, the Kd was found to be 0.433 nM, the koff stood at 0.00266 s⁻¹ and the kon was 6.16e+06 M⁻¹ s⁻¹.

Take B2: the Kd was found to be 0.552 nM, the koff was determined as 0.0017 s⁻¹ and the kon came out at 3.08e+06 M⁻¹ s⁻¹.

Regarding B3, the Kd came out at 0.0507 nM, the koff was determined as 0.00021 s⁻¹ and the kon is 4.15e+06 M⁻¹ s⁻¹.

Consider B4, for which the Kd was 0.347 nM, the koff is 0.0032 s⁻¹ and the kon came to 9.21e+06 M⁻¹ s⁻¹.
